Laboratory results published in the RNAGym collection of RNA variant scans (doi:10.7554/elife.80360).

B1: HDV Ribozyme (parent)
chain: GGCCGGCAUGGUCCCAGCCUCCUCGCUGGCGCCGGCUGGGCAACAUUCCGAGGGGACCGUCCCCUCGGUAAUGGCGAAUGGGACCCA

Variants of: B1
Test: self-cleavage, relative activity (ratio to wild type); higher = more cleavage; co-transcriptional

Compared with GGCCGGCAUGGUCCCAGACUCCUCGCUGGCGCCGGCUGGGCAACAUUCCGAGGGGACCGUCCCCUCGGUAAGGGCGAAUGGGACCCA [C18A U72G], GGCCGGCAUGGUCCCAGGCUCCUCGCUGGCGCCGGCUGGGCAACAUUGCGAGGGGACCGUCCCCUCGGUAAUGGCGAAUGGGACCCA [C18G C48G] is lower in self-cleavage: 0.19 for the first, 0.175 for the second.

First: GGCCGGCAUGGUCCCAGGCUCCUCGCUGGCGCCGGCUGGGCAACAUUACGAGGGGACCGUCCCCUCGGUAAUGGCGAAUGGGACCCA [C18G C48A]
Second: GGCCGGCAUGGUCCCAGGCUUCUCGCUGGCGCCGGCUGGGCAACAUUCCGAGGGGACCGUCCCCUCGGUAAUGGCGAAUGGGACCCA [C18G C21U]
The self-cleavage of the first is lower: 0.123 for the first, 0.128 for the second.

First: GGCCGGCAUGGUCCCAGGCUGCUCGCUGGCGCCGGCUGGGCAACAUUCCGAGGGGACCGUCCCCUCGGUAAUGGCGAAUGGGACCCA [C18G C21G]
Second: GGCCGGCAUGGUCCCAGGCUCCUCGCUGGGGCCGGCUGGGCAACAUUCCGAGGGGACCGUCCCCUCGGUAAUGGCGAAUGGGACCCA [C18G C30G]
The self-cleavage of the first is lower: 0.175 for the first, 0.222 for the second.

Going from GGCCGGCAUGGUCCCAGGAUCCUCGCUGGCGCCGGCUGGGCAACAUUCCGAGGGGACCGUCCCCUCGGUAAUGGCGAAUGGGACCCA [C18G C19A] to GGCCGGCAUGGUCCCAGGCUCCUCGCUGGCGCCGGCUGGGCAGCAUUCCGAGGGGACCGUCCCCUCGGUAAUGGCGAAUGGGACCCA [C18G A43G], the self-cleavage rises from 0.119 to 0.145.

First: GGCCGGCAUGGUCCCAGGCUCCUCGCUGGCGCCGGCUGGGCACCAUUCCGAGGGGACCGUCCCCUCGGUAAUGGCGAAUGGGACCCA [C18G A43C]
Second: GGCCGGCAUGGUCCCAGGCUCCUCGCUGGCCCCGGCUGGGCAACAUUCCGAGGGGACCGUCCCCUCGGUAAUGGCGAAUGGGACCCA [C18G G31C]
The self-cleavage of the first is higher: 0.332 for the first, 0.0449 for the second.

First: GGCCGGCAUGGUCCCAGACUCCUCGCUGGCGCCGGCUGGGCAACAUUCCGAGGGGACCGUCCCCGCGGUAAUGGCGAAUGGGACCCA [C18A U65G]
Second: GGCCGGCAUGGUCCCAGGCUCCUUGCUGGCGCCGGCUGGGCAACAUUCCGAGGGGACCGUCCCCUCGGUAAUGGCGAAUGGGACCCA [C18G C24U]
The self-cleavage of the first is higher: 0.19 for the first, 0.107 for the second.

Going from GGCCGGCAUGGUCCCAGGCUCCUAGCUGGCGCCGGCUGGGCAACAUUCCGAGGGGACCGUCCCCUCGGUAAUGGCGAAUGGGACCCA [C18G C24A] to GGCCGGCAUGGUCCCAGGCUCCUGGCUGGCGCCGGCUGGGCAACAUUCCGAGGGGACCGUCCCCUCGGUAAUGGCGAAUGGGACCCA [C18G C24G], the self-cleavage falls from 0.0755 to 0.0504.

First: GGCCGGCAUGGUCCCAGGCUCCUCGCUGGCGCCGGCUGGGCAACAUUCCGAGGGGACCGUCCCAUCGGUAAUGGCGAAUGGGACCCA [C18G C64A]
Second: GGCCGGCAUGGUCCCAGGCUCAUCGCUGGCGCCGGCUGGGCAACAUUCCGAGGGGACCGUCCCCUCGGUAAUGGCGAAUGGGACCCA [C18G C22A]
The self-cleavage of the first is lower: 0 for the first, 0.172 for the second.

Compared with GGCCGGCAUGGUCCCAGGCUCCUCGCUCGCGCCGGCUGGGCAACAUUCCGAGGGGACCGUCCCCUCGGUAAUGGCGAAUGGGACCCA [C18G G28C], GGCCGGCAUGGUCCCAGGCUCCUCGCUAGCGCCGGCUGGGCAACAUUCCGAGGGGACCGUCCCCUCGGUAAUGGCGAAUGGGACCCA [C18G G28A] is lower in self-cleavage: 0.0573 for the first, 0.0346 for the second.

Compared with GGCCGGCAUGGUCCCAGACUCCUCGCUGGCGCCGGCUGGGCAACAUUCCGAGGGGACCGUCCCCUCGGGAAUGGCGAAUGGGACCCA [C18A U69G], GGCCGGCAUGGUCCCAGGCUCCUCACUGGCGCCGGCUGGGCAACAUUCCGAGGGGACCGUCCCCUCGGUAAUGGCGAAUGGGACCCA [C18G G25A] is lower in self-cleavage: 0.232 for the first, 0.0504 for the second.

First: GGCCGGCAUGGUCCCAGGCUCCUCCCUGGCGCCGGCUGGGCAACAUUCCGAGGGGACCGUCCCCUCGGUAAUGGCGAAUGGGACCCA [C18G G25C]
Second: GGCCGGCAUGGUCCCAGGCUCCUCGCUGGCGCCGGCUGGGCAACAUUCCGAGGGGACCGUCCCCUCGGUAAUGGCGAAUGGGAACCA [C18G C84A]
The self-cleavage of the first is higher: 0.222 for the first, 0.095 for the second.

Compared with GGCCGGCAUGGUCCCAGGCUCCUCGCUGGCGCCGGCUGGGCAACAUUCCGUGGGGACCGUCCCCUCGGUAAUGGCGAAUGGGACCCA [C18G A51U], GGCCGGCAUGGUCCCAGGCUCCUCGCUGGCGCCGGCUGGGCAACAUUCCGGGGGGACCGUCCCCUCGGUAAUGGCGAAUGGGACCCA [C18G A51G] is lower in self-cleavage: 0.0489 for the first, 0 for the second.

First: GGCCGGCAUGGUCCCAGGCUCCUCGCUGGCGCCGGCUGGGCAACAUUCCGCGGGGACCGUCCCCUCGGUAAUGGCGAAUGGGACCCA [C18G A51C]
Second: GGCCGGCAUGGUCCCAGGCUCCUCGCUGGCGCCGGCUGGGCAACCUUCCGAGGGGACCGUCCCCUCGGUAAUGGCGAAUGGGACCCA [C18G A45C]
The self-cleavage of the first is higher: 0.208 for the first, 0 for the second.

First: GGCCGGCAUGGUCCCAGGCUCCUCGCUGGCGCCGGCUGGGCAACUUUCCGAGGGGACCGUCCCCUCGGUAAUGGCGAAUGGGACCCA [C18G A45U]
Second: GGCCGGCAUGGUCCCAGGCUCCUCGCUGGCGCCGGCUGGGCAACAUUCCGAGGGGACCGUCCCCUCGGUAAUGGCGAAUGGGACCCC [C18G A87C]
The self-cleavage of the first is higher: 0.217 for the first, 0.104 for the second.

First: GGCCGGCAUGGUCCCAGGCUCCUCGCUGGCGCCGGCUGGGCAAAAUUCCGAGGGGACCGUCCCCUCGGUAAUGGCGAAUGGGACCCA [C18G C44A]
Second: GGCCGGCAUGGUCCCAGGCUCCUCGCUGGCGCCGGCUGGGCAAUAUUCCGAGGGGACCGUCCCCUCGGUAAUGGCGAAUGGGACCCA [C18G C44U]
The self-cleavage of the first is lower: 0 for the first, 0.0426 for the second.

Going from GGCCGGCAUGGUCCCAGGCUCCUCGCUGGCGCUGGCUGGGCAACAUUCCGAGGGGACCGUCCCCUCGGUAAUGGCGAAUGGGACCCA [C18G C33U] to GGCCGGCAUGGUCCCAGGCUCCUCGCUGGCGCCGGCUGGGCAACAUUCCGAGGGGACAGUCCCCUCGGUAAUGGCGAAUGGGACCCA [C18G C58A], the self-cleavage falls from 0.128 to 0.0573.
